From article PMC7020209 (Plants, 2020)
Like-named read-outs stand apart in the source and are kept apart here.

Experiments:
Conditions in all cases: co-substrate O2, 30 °C
N3-GOX = test: O2 consumption, Hansatech oxygen electrode, nonlinear Michaelis-Menten fit; format: biochemical, synthetic construct
Source text: O2 consumption, Hansatech oxygen electrode, nonlinear Michaelis-Menten fit on N3-GOX

purified protein [1] = substrate: C[C@H](O)C(=O)O; test: purified protein
purified protein [2] = substrate: O=C(O)CO; test: purified protein

Row | Km (N3-GOX; read-out: Glycolate / Km) [mM] | Km (N3-GOX; read-out: L-Lactate / Km) [mM] | Molecule | Km (purified protein [1]) [mM] | Vmax (purified protein [1]) [µmol/min/mg] | Km (purified protein [2]) [mM] | Vmax (purified protein [2]) [µmol/min/mg]
1 | 11.8 ± 0.61 | – | O=C(O)CO [glycolate] | – | – | – | –
2 | – | 13.7 ± 1.93 | C[C@H](O)C(=O)O [L-lactate] | – | – | – | –

More lines, now with the values behind:

Row | Molecule | Km (N3-GOX; read-out: Glycolate / Km) [mM] | Km (N3-GOX; read-out: L-Lactate / Km) [mM] | Km (purified protein [1]) [mM] | Vmax (purified protein [1]) [µmol/min/mg] | Km (purified protein [2]) [mM] | Vmax (purified protein [2]) [µmol/min/mg]
3 | Cp-GOXc (Cyanophora paradoxa) (protein) MQPLSAQALAQYRAAAPMDPVNVMEYQMVAKEKLPKMVYDYYASGADDQWTLQEARSAFERITFRPRVLVDVSVQDMSTTILGQKVAFPICVAPTAMQCMATGQGEKATSRAVASMNTLMTLSSWSTTPLEEVAKAAPHGARWFQLYVYKDRACTERLVRRAQAAGYKALCLTVDTPRLGRRENDVKNRFHLPDGLTMGNFLDLVQAEMPTDQKDSGLAAYVASLIDPTLNWKDVEWLKTITNLPIVVKGVLTAEDALMAVKHGCAGIVVSNHGARQLDYSPATIDVLEEVVNAVRGYPIEVYLDGGVRRGTDALKALALGARAVFVGRPVVWGLAAGGEEGVRKVLTMLRDEFKLGLALLGCQSLKDINRSMVVTPADRAKTAVRARL | – | – | 9.27 ± 1.44 | 6.94 | 0.38 ± 0.05 | 8.98
4 | Sp-GOX (Spirogyra pratensis) (protein) MSSEVVNVTEFQAIAKQKLPKQTYDYYASGAEDEWSLRENRNAFERITFRPRILIDVSKIDLTTSVLGYRLSMPIMVAPTAMQKMAHPDGELATARAATSMNTAMTLSSWATSSVEEVSSTGPGLRFFQLYVYKNRDVVLQLVRRAEKAGFKAIALTVDTPRLGRREADIRNKFVLPPGLTLKNFEGLDLGKMDQTEDSGLASYVAGQIDRSLSWKDVKWLQSVTSMPILVKGVITGEDAKIAVECGASGIIVSNHGARQLDYVSSTINALEEVVKATAGRIPVFLDGGVRRGTDVLKALALGAKGVFVGRPVVFALASDGEAGVKKCLQMLRDEFELAMALAGCTKISDINRSLVQTEGDRIRMAARL | – | – | 15.52 ± 4.55 | 24.2 | 0.94 ± 0.12 | 28.1
